Laboratory results from patent publication US20250388678A1, “Methods, Combinations, and Uses for the Treatment of Muscle Invasive Bladder Cancer” (AstraZeneca AB, priority 2024, published 2025).

Columns and labels:
[1] = biological target: PD-L1 (Homo sapiens, UniProt Q9NZQ7); conditions: in vitro; cited from earlier work
[2] = tested on: xenograft model; conditions: via a T-cell dependent mechanism; cited from earlier work
[3] = NIAGARA phase III study: adverse events and immune-mediated adverse events; type: in vivo
Source text: Adverse Events (AEs), Serious Adverse Events (SAE), and immune-mediated adverse events (imAE) were collected from the time of the patient signing the informed consent form until follow-up period as completed (90 days after last dose of treatment (Arm 1) or adjuvant phase study visits (Arm 2). Tables 3 and 4 outline the variables collected for adverse events and severe adverse events.
AESIs for durvalumab include but are not limited to events with a potential inflammatory or immune-mediated mechanism and which may require more frequent monitoring and/or interventions such as steroids, immunosuppressants, and/or hormone replacement therapy. These AESIs are closely monitored in clinical studies with durvalumab monotherapy and combination therapy. An imAE is defined as an AESI that is associated with drug exposure, required the use of systemic steroids or other immunosuppressants and/or endocrine therapy for specific endocrine events, is consistent with an immune-mediated MOA, and where there is no clear alternate etiology.
Serologic, immunologic, and histologic (biopsy) data, as appropriate, were used to support an imAE diagnosis. Appropriate efforts were made to rule out neoplastic, infectious, metabolic, toxin, or other etiologic causes of the imAE.
The overall safety profile is consistent with the known safety profile of durvalumab and chemotherapy. The addition of durvalumab to chemotherapy had no detrimental impact on backbone chemotherapy administration. AEs leading to treatment discontinuation in neoadjuvant phase were balanced between the two arms. The number of patients not undergoing radical surgery because of AEs due to neoadjuvant treatment was balanced in both arms. Rates of grade 3 or 4 AEs and AEs with outcome of death were similar between the two arms (See Table 6). The overall study period included AEs that occurred between the first dose of study treatment, and whichever occurred first: 1) 90 days after the last dose of treatment, surgery, or last adjuvant visit; 2) date of first dose of subsequent anti-cancer therapy; or 3) data cut-off date.

[4] = tested on: muscle-invasive bladder cancer; assay: NIAGARA phase III study: pathological complete response (pCR) at radical cystectomy; type: in vivo, human
Description: (§1) Dual primary efficacy endpoints evaluated in this study were event-free survival (EFS; per blinded independent central review [BICR]) and pathological complete response (pCR; evaluated centrally). Therefore, if either the EFS endpoint or pCR endpoint was achieved, the study was considered a success.
Primary tumors and sampled lymph nodes were assessed for pathological response to neoadjuvant treatment by central pathology review using recommendations from the IASLC.
pCR efficacy assessment was accomplished by pathological review of radical cystectomy samples. EFS efficacy assessment were assessed by either RECIST 1.1 on imaging scans by pathology on biopsy samples if required.

[5] = tested on: muscle-invasive bladder cancer; assay: NIAGARA phase III study: survival efficacy endpoints (EFS, OS, MFS, DSS, DFS); type: in vivo, human
Source text: The NIAGARA (NCT03732677) study described herein is a phase III, randomized, open-label, multi-center global study of durvalumab in combination with neoadjuvant gemcitabine+cisplatin before cystectomy (surgery to remove the bladder) followed by durvalumab as adjuvant monotherapy in patients with histologically or cytologically documented, resectable muscle-invasive bladder cancer and transitional cell carcinoma of the urothelium.
The study enrolled 1530 patients and randomized 1063 of those the patients in a 1:1 ratio to receive durvalumab+Gemcitabine+Cisplatin (D+G+C) combination therapy every three weeks (q3w) (Arm 1) or G+C combination therapy q3w (Arm 2) for 4 cycles of neoadjuvant chemotherapy prior to radical cystectomy. Patients started adjuvant durvalumab or placebo administration following surgery as soon as clinically feasible and within 42-120 days following surgery from surgery. Following radical cystectomy and during adjuvant therapy, patients in Arm 1 received durvalumab monotherapy every 4 weeks (q4w) for 8 additional cycles, and patients in Arm 2 received no adjuvant treatment.
Patients received a combination therapy comprising 1500 mg durvalumab or placebo via intravenous (IV) infusion q3w for up to a maximum of 4 cycles prior to surgery and a platinum therapy consisting of cisplatin and gemcitabine, the dose dependent on renal function. Patients having a creatinine clearance rate of about ≥60 mL/min, were administered cisplatin at a dose of about 70 mg/m^2 on day 1 of each cycle; and (b) gemcitabine at a dose of about 1000 mg/m^2 on days 1 and 8 of each cycle every 3 weeks (q3w) for a total of four cycles. Patients having a creatinine clearance rate of about ≥40 mL/min to <60 mL/min, were administered cisplatin at a dose of about 70 mg/m^2 on day 1 of each cycle; and (b) gemcitabine at a dose of about 1000 mg/m^2 on days 1 and 8 of each cycle every 3 weeks (q3w) for a total of four cycles.
A radical cystectomy was performed as soon as possible after completion of fourth administration of the combination therapy. The radical cystectomy was performed between […] following the last administration of the combination therapy. Male patients underwent radial cytoprostatectomy and urinary diversion along with bilateral pelvic lymph node dissection. Female patients underwent radical cystectomy. Elective hysterectomy and bilateral salpingectomy was optionally performed if no gross evidence of oncologic involvement was noted by the surgeon. Oophorectomy was omitted if clinically indicated. A urinary diversion creation was established via an ileal conduit, ileal neobladder, Indiana Pouch, or as per local practice. Bilateral pelvic lymph node dissection included following template to include the 1) external iliac, 2) obturator, and 3) internal iliac nodes, and 4) common iliac nodes to the level of the ureteric crossing and included a lymph node classified as cN1 at baseline if one was present. Removal of other nodes is per the surgeon's discretion. The boundaries of the template were the circumflex iliac vein and Cloquet's node, laterally by the genitofemoral nerve, medially by the bladder, posteriorly by the obturator fossa, and proximally to the ureter. Radical cystectomy was mandatory study procedure for all patients unless a patient is only able to undergo a partial cystectomy.
as §1
Secondary endpoints included overall survival (OS), and evaluation of the primary outcome in the PD-L1 high subgroup; pharmacokinetics and immunogenicity; patient-reported outcomes; and safety. […]

[6] = Safety Analysis Set, number of patients
[7] = durvalumab arm vs comparator arm
[8] = ITT, durvalumab arm vs comparator arm
[9] = ITT, of 533 (durvalumab arm) / 530 (comparator arm)
[10] = non-pCR subgroup, durvalumab vs comparator, exploratory post hoc
[11] = pCR subgroup, durvalumab vs comparator, exploratory post hoc
[12] = patients with radical cystectomy and post-RC baseline scan, vs comparator arm

Sequence of PD-L1 (Q9NZQ7 19-290): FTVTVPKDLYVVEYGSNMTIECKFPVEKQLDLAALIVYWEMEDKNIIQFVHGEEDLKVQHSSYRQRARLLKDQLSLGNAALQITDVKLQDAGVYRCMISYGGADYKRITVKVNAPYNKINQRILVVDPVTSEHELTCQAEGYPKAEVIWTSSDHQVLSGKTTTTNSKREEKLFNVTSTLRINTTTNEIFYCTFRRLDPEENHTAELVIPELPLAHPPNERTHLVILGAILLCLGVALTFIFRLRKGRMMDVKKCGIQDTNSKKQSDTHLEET

Durvalumab: antibody that selectively binds PD-L1; trial arm: durvalumab+gemcitabine+cisplatin before radical cystectomy, then adjuvant durvalumab monotherapy
effect on PD-L1-mediated suppression of human T-cell activation [1]: relieve PD-L1-mediated suppression of human T-cell activation | effect on tumor growth in a xenograft model [2]: inhibits tumor growth | Anemia (%) ([3]; Safety Analysis Set): (38.7) % | Asthenia (%) ([3]; Safety Analysis Set): (17.5) % | Blood creatinine increased (%) ([3]; Safety Analysis Set): (18.5) % | Constipation (%) ([3]; Safety Analysis Set): (38.7) % | Decreased appetite (%) ([3]; Safety Analysis Set): (26.6) % | Diarrhea (%) ([3]; Safety Analysis Set): (20.6) % | Fatigue (%) ([3]; Safety Analysis Set): (36.0) % | Nausea (%) ([3]; Safety Analysis Set): (53.6) % | Neutropenia (%) ([3]; Safety Analysis Set): (25.8) % | Neutrophil count decreased (%) ([3]; Safety Analysis Set): (15.3) % | Patients with any AE (%) ([3]; Safety Analysis Set): (99.4) % | Pruritis (%) ([3]; Safety Analysis Set): (15.1) % | Pyrexia (%) ([3]; Safety Analysis Set): (20.8) % | Urinary tract infection (%) ([3]; Safety Analysis Set): (30.0) % | Vomiting (%) ([3]; Safety Analysis Set): (19.2) % | Anemia, number [3, 6]: 205 | Asthenia, number [3, 6]: 93 | Blood creatinine increased, number [3, 6]: 98 | Constipation, number [3, 6]: 205 | Decreased appetite, number [3, 6]: 141 | Diarrhea, number [3, 6]: 109 | Fatigue, number [3, 6]: 191 | Nausea, number [3, 6]: 284 | Neutropenia, number [3, 6]: 137 | Neutrophil count decreased, number [3, 6]: 81 | Patients with any AE, number [3, 6]: 527 | Pruritis, number [3, 6]: 80 | Pyrexia, number [3, 6]: 110 | Urinary tract infection, number [3, 6]: 159 | Vomiting, number [3, 6]: 102 | AEs leading to discontinuation of NAC, % ([3]; in vivo): (13.6) % | AEs leading to discontinuation of adjuvant durvalumab, % ([3]; in vivo): (7.8) % | AEs leading to discontinuation of neoadjuvant durvalumab, % ([3]; in vivo): (9.4) % | AEs leading to patient not undergoing RC, % ([3]; in vivo): (1.1) % | additional imAEs: dermatitis/rash, renal events, diarrhea/colitis, pneumonitis (each) ([3]; in vivo): ≤ 2% | imAE hyperthyroid events ([3]; in vivo): 3% | imAE hypothyroid events ([3]; in vivo): 10% | imAEs resolved at data cutoff, number of patients ([3]; of 111 (durvalumab arm) / 16 (comparator arm)): 45 patients | imAEs reported, number of patients ([3]; of 530 (durvalumab arm) / 526 (comparator arm)): 111 patients | imAEs resolved at data cutoff, percent of patients ([3]; of patients with imAEs): 41% | AEs leading to delay in surgery, % ([3]; outside recommended timeframe for RC of 56 days after last dose of NAC): (2.0) % | AEs leading to discontinuation of study treatment, % ([3]; overall study period): (21) % | AEs possibly related to any treatment: Max grade 3 or 4, % ([3]; overall study period): (40.6) % | AEs possibly related to any treatment: Outcome of death, % ([3]; overall study period): (0.6) % | AEs with outcome of death, % ([3]; overall study period): (5.1) % | Any-grade AEs possibly related to any treatment, % ([3]; overall study period): (94.7) % | Any-grade AEs, % ([3]; overall study period): (99.4) % | Any-grade AEs: Max grade 3 or 4, % ([3]; overall study period): (69.4) % | SAEs, % ([3]; overall study period): (61.5) % | imAEs grade 3/4 ([3]; overall study period): 3% | imAEs reported, percent of patients ([3]; overall study period, any grade): 21% | patients with pCR at the time of the radical cystectomy ([4]; ITT): 37.3% | difference in pCR with durvalumab in addition to chemotherapy [4, 7]: ~10% | pCR odds ratio [4, 7]: 1.60 | pCR rates among patients that underwent RC ([4]; durvalumab arm=469 patients, comparator arm=441 patients): increased | death from bladder cancer, percent of patients ([5]; ITT): 15.9% | patients with distant metastases or death (MFS events), percent ([5]; ITT): 28.5% | EFS Hazard Ratio (HR) ([5]; ITT population, durvalumab+cisplatin+gemcitabine vs cisplatin+gemcitabine, BICR, DCO April 2024): 0.68 | probability of 24-month metastasis-free survival ([5]; ITT, 24 months): 75.1% | disease-specific survival hazard ratio (HR) [5, 8]: 0.69 | metastasis-free survival hazard ratio (HR) [5, 8]: 0.67 | reduction in risk of death from bladder cancer (disease-specific survival) [5, 8]: 31% | reduction in the relative risk of death from any cause (OS) [5, 8]: 25% | reduction in risk of developing a distant metastasis or dying (metastasis-free survival) ([5]; ITT, durvalumab arm vs comparator arm, greater than 40 month follow-up): 33% | OS hazard ratio (HR) ([5]; ITT, durvalumab arm vs comparator arm, interim analysis): 0.75 | death from bladder cancer, number of patients [5, 9]: 85 patients | patients with distant metastases or death (MFS events), number [5, 9]: 152 patients | 24-month probability of disease-free survival ([5]; ITT, under heading Disease Specific Survival, 24 months): 89.2% | 24-month EFS rate ([5]; Non-pCR subgroup): 53% | 24-month OS rate ([5]; Non-pCR subgroup): 74% | DFS HR, non-pCR group ([5]; non-pCR group, vs comparator arm, exploratory post hoc): 0.82 | reduction in relative risk tumor growth, tumor spreading, not undergoing surgery or dying ([5]; non-pCR patients): 23% | reduction in the relative risk of dying from any cause ([5]; non-pCR patients): 16% | EFS HR, non-pCR patients [5, 10]: 0.77 | OS HR, non-pCR patients [5, 10]: 0.84 | DFS HR, pCR group ([5]; pCR group, vs comparator arm, exploratory post hoc): 0.58 | 24-month EFS rate ([5]; pCR subgroup): 92% | 24-month OS rate ([5]; pCR subgroup): 96% | EFS HR, patients with pCR [5, 11]: 0.58 | OS HR, patients with pCR [5, 11]: 0.72 | reduction in the relative risk of dying from any cause ([5]; patients achieving pCR): 28% | reduction in relative risk of tumor growth, tumor spreading, not undergoing surgery or dying ([5]; patients that achieved pCR): 42% | DFS hazard ratio (HR) [5, 12]: 0.69 | reduced risk of disease recurrence or death (DFS) [5, 12]: 31% | DFS HR, divergent or other histologic subtypes ([5]; total n=103, vs comparator arm): 0.45
